The source of these data is patent US20130053541A1, “METHODS FOR DISCOVERING MOLECULES THAT BIND TO PROTEINS” (LYNNTECH, INC., priority 2011, published 2013).

One test addresses T1, native human ESRRG protein (Homo sapiens, UniProt P62508).
T1 sequence (P62508 1-458): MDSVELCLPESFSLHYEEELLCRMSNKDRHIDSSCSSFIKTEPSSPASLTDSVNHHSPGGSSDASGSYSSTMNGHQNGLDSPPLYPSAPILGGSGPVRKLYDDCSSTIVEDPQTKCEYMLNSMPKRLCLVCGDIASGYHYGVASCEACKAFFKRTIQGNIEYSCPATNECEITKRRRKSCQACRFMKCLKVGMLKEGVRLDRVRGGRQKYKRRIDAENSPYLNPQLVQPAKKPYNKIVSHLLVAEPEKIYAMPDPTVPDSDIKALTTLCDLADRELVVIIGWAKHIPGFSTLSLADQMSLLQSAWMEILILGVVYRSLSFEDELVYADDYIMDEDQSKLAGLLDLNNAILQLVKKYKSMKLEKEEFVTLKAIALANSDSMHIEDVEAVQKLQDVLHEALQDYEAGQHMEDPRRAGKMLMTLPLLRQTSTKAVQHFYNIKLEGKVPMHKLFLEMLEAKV
Description: peptide microarray screening for ESRRG binding (Iteration 1 and 2). The note with it: Iteration 1 primary screen. An excerpt: The BLOSUM62 matrix was divided into Tiers based, with Tier 1 comprising “most conserved” (lowest penalty) and Tier 3 comprising “least conserved” (highest penalty) mutations observed in nature. Sequences for microarray production for the primary stage (Iteration 1) of screening for protein binding were created by permuting AA positions 4 and/or 5 only (i.e., core of sequence) of parent 8-mer peptides using Tier 1 and Tier 3 substitutions. This allows the systematic variation of the sequence in order to identify the most important motif within the larger candidate ligand sequence that is needed for binding the target protein. All peptides on the array were grown from the C→N terminal, with the exposed N-terminal amino acid masked by an acetyl group to prevent folding of the sequence and enable full presentation of the peptide to its target protein.
Screening was carried out typically by hybridization of the protein (1 μg/mL) against the array for 1 h at 4° C.; detection of bound protein was carried out using a fluorescently labeled anti-ESRRG mAb. (Direct labeling of ESRRG and alternative detection strategies are equally valid).
Highest binders (based on relative fluorescence signal) were selected and iteratively sequence expanded and arrayed (Iteration 2); and ESRRG binding sequences were selected as above. For iterative arrays, the core positions (AA 4 and 5) were kept unchanged while the outer amino acids (2, 3, 6, and/or 7) were permuted using Tier 3 substitutions.
Daughter candidate ligands and their new Tier 3 and/or Tier 1 based combinations were synthesized in situ on an addressable peptide microarray and screened against native human ESRRG protein in order to determine sequences that bind to this protein. Bound protein was detected by a fluorescently labeled anti-ESRRG mAb. Results are obtained in fluorescence intensity units which were used to rank the peptide ligands. Excess (100×) competing biological matrices (human serum, HSA/BSA or bacterial protein extract) were used as backgrounds to select for specific ligands to the protein. Other competing proteins can be added to background for specificity selection and directed evolution of ligands.
Iterative sequence expansion and arraying of 10 highest binding ligands to ESRRG from Iteration 1 was carried out and the new peptide sequences were synthesized on an array and screened against the protein, as described above. In this step, the central 2 amino acids (core) in peptide sequences were maintained unchanged while outlying amino acids (2, 3, 6, and 7) were permuted (using Tier 1 and Tier 3 substitutions) in a ‘cipher’ or ‘combination’ lock approach. Further affinity maturation of sequence was observed, with multifold enhancement in binding signal of Iteration 2 sequences (i.e., Granddaughters) compared to their respective parents from Iteration 1 (i.e., Daughters) on the same array.
As for Ac-NSLLKHLL-NH2 (C-terminus assumed), the “log2 (Sample B/Sample A)” value was 7.65. Same read-out and setting: as for Ac-NIKVNANN-NH2 (C-terminus assumed), the figure is 7.62; as for Ac-AIRGALMG-NH2 (C-terminus assumed), 5.48.

In the case of Ac-ANNSRLLH-NH2 (C-terminus assumed), the “log2 (Sample B/Sample A)” value is given as 5.54.

On to Ac-IKQDHNNS-NH2 (C-terminus assumed), for which the “log2 (Sample B/Sample A)” value worked out at 9.45. For Ac-NSLRKHLL-NH2 (C-terminus assumed), the “log2 (Sample B/Sample A)” value turned out to be 5.36. The same measure, in the same setting: as for Ac-LLHSSKSQ-NH2 (C-terminus assumed), the figure is 5.40; as for Ac-LLHKSKSQ-NH2 (C-terminus assumed), 4.99; as for Ac-NSLKKHLL-NH2 (C-terminus assumed), 10.84.

Still in this test, the particulars now being: Iteration 1 primary screen; fluorescence intensity units.
For the substance Ac-NSLLKHLL-NH2 (C-terminus assumed), the “Sample A (Bkgd) Signal” value was determined as 73.81 and the “Sample B (Probe) Signal” value was 14,810.16. On to ANNIWLLH, for which the “Sample A (Bkgd) Signal” value is on record as 30.52 and the “Sample B (Probe) Signal” value is 1,012.72.

AIRVHLMG: the “Sample A (Bkgd) Signal” value is 11.78. Turning to NSLLQHLL, the “Sample A (Bkgd) Signal” value worked out at 2.42 and the “Sample B (Probe) Signal” value is given as 9,739.76. For Ac-NIKVNANN-NH2 (C-terminus assumed), in that order: 3.04 and 598.87.

For the substance LHLRYSQT, the “Sample A (Bkgd) Signal” value amounted to 33.10. On the same count and under the same terms, as for ANNIQLLH, the figure is 2.12.

As for AANMLLLL, the “Sample A (Bkgd) Signal” value came out at 25.96 and the “Sample B (Probe) Signal” value was 1,191.86.

In the case of ANNSLLLH, the “Sample A (Bkgd) Signal” value was 14.53 and the “Sample B (Probe) Signal” value is reported as 1,321.14. IKQNYNNS: the “Sample A (Bkgd) Signal” value is 23.70.

With NSLRSHLL, the “Sample A (Bkgd) Signal” value was determined as 20.67 and the “Sample B (Probe) Signal” value is listed as 1,673.50. Regarding Ac-AIRGALMG-NH2 (C-terminus assumed), the “Sample A (Bkgd) Signal” value was determined as 19.03 and the “Sample B (Probe) Signal” value came out at 851.06. For AANMYLLL, in that order: 64.73 and 4,011.85. For the substance NNSWSLHL, the “Sample A (Bkgd) Signal” value worked out at 23.54. On to Ac-ANNSRLLH-NH2 (C-terminus assumed), for which the “Sample A (Bkgd) Signal” value turned out to be 31.74 and the “Sample B (Probe) Signal” value was 1,480.35.

Take Ac-IKQDHNNS-NH2 (C-terminus assumed): the “Sample A (Bkgd) Signal” value was determined as 1.00 and the “Sample B (Probe) Signal” value is given as 701.08. On the same counts, the results for Ac-NSLRKHLL-NH2 (C-terminus assumed) are 20.79 and 856.14. For the substance ANNSKLLH, the “Sample A (Bkgd) Signal” value is reported as 23.60 and the “Sample B (Probe) Signal” value is 1,009.30.

Consider RKAIFGKY, for which the “Sample A (Bkgd) Signal” value was 23.63. On the same count and under the same terms, the value for AIRGHLMG was 18.88; that for RKALVGKY was 28.08. As to AANYILLL, the “Sample A (Bkgd) Signal” value is 13.78 and the “Sample B (Probe) Signal” value is listed as 2,012.02. Ac-LLHSSKSQ-NH2 (C-terminus assumed): the “Sample A (Bkgd) Signal” value was found to be 19.42 and the “Sample B (Probe) Signal” value is reported as 819.16. Take KSLLQQLL: the “Sample A (Bkgd) Signal” value was found to be 88.50 and the “Sample B (Probe) Signal” value is given as 7,385.40. On the same counts, the results for ANNLKLLH are 56.94 and 1,672.30. On the same counts, the results for ANNFLLLH are 46.43 and 1,624.73.

Take Ac-LLHKSKSQ-NH2 (C-terminus assumed): the “Sample A (Bkgd) Signal” value was 30.24 and the “Sample B (Probe) Signal” value is listed as 962.22. On to ANNLSLLH, for which the “Sample A (Bkgd) Signal” value is 21.54 and the “Sample B (Probe) Signal” value is listed as 1,220.01. For Ac-NSLKKHLL-NH2 (C-terminus assumed), in that order: 5.04 and 9,219.14.

For the substance ANNVKLLH, the “Sample A (Bkgd) Signal” value is on record as 52.38 and the “Sample B (Probe) Signal” value is reported as 1,718.47. On to LHLKGSQT, for which the “Sample A (Bkgd) Signal” value was 6.97. As for ANNVSLLH, the “Sample A (Bkgd) Signal” value stood at 62.19 and the “Sample B (Probe) Signal” value was 1,818.72. On the same counts, the results for ANNLQLLH are 47.08 and 1,537.71.

In the case of ANNSSLLH, the “Sample A (Bkgd) Signal” value is listed as 7.39 and the “Sample B (Probe) Signal” value was 1,153.13. On the same counts, the results for NSLRQHLL are 47.85 and 3,242.55.

Staying with this test, now noted: Iteration 2 iterative screen.
Regarding Ac-LYLLKHHP-NH2 (C-terminus assumed), the “log2 (Sample B/Sample A)” value came to 3.05.

The test is the same for the next values; noted with them: Iteration 2 iterative screen; fluorescence intensity units.
On to NNNFSLHM, for which the “Sample A (Bkgd) Signal” value worked out at 199.94 and the “Sample B (Probe) Signal” value is on record as 4,374.19. In the case of WANYLLPP, the “Sample A (Bkgd) Signal” value is reported as 182.90 and the “Sample B (Probe) Signal” value is on record as 2,860.10. For FYNMYLLN, in that order: 251.75 and 1,558.62. With FVNFSLGI, the “Sample A (Bkgd) Signal” value worked out at 238.31.

With LFLLQQDD, the “Sample A (Bkgd) Signal” value was determined as 219.12 and the “Sample B (Probe) Signal” value was 2,423.10. On the same counts, the results for FFNFSLPA are 165.50 and 1,043.90.

As to HLKLKQEN, the “Sample A (Bkgd) Signal” value worked out at 183.65 and the “Sample B (Probe) Signal” value was 1,745.92. On the same counts, the results for LFKLKQDG are 277.71 and 2,776.37.

Turning to ALNFSLNW, the “Sample A (Bkgd) Signal” value was 152.44. Take LILLQQLD: the “Sample A (Bkgd) Signal” value stood at 177.10 and the “Sample B (Probe) Signal” value is recorded as 1,251.12.

Regarding HDNMYLNE, the “Sample A (Bkgd) Signal” value is recorded as 81.50 and the “Sample B (Probe) Signal” value is reported as 7,243.75.

Regarding HYKLKQHE, the “Sample A (Bkgd) Signal” value stood at 165.10 and the “Sample B (Probe) Signal” value is reported as 1,296.65. For HFKLKQGG, in that order: 641.69 and 3,108.23. In the case of EESYPRDK, the “Sample A (Bkgd) Signal” value was 121.27.

Take GKSYPRHR: the “Sample A (Bkgd) Signal” value turned out to be 553.79 and the “Sample B (Probe) Signal” value is recorded as 3,049.48. On the same counts, the results for HRSYPRVY are 494.92 and 2,451.98.

Regarding NLLLKHPD, the “Sample A (Bkgd) Signal” value came out at 216.15 and the “Sample B (Probe) Signal” value is listed as 2,297.98. EDSYPRDG: the “Sample A (Bkgd) Signal” value is given as 297.83 and the “Sample B (Probe) Signal” value is on record as 5,021.94. On the same counts, the results for DINFSLGI are 160.50 and 4,797.29. For NNSYPRHR, in that order: 731.12 and 3,422.79. For IFLLQQDN, in that order: 238.04 and 1,007.54. As for PGKGHFPI, the “Sample A (Bkgd) Signal” value is listed as 260.71.

With DNNYLLLL, the “Sample A (Bkgd) Signal” value was determined as 156.87 and the “Sample B (Probe) Signal” value is reported as 2,242.02. On the same counts, the results for YHNYLLHP are 240.19 and 1,309.00. On the same counts, the results for PDSYPRWG are 288.88 and 5,591.60.

Take TGKLKQDG: the “Sample A (Bkgd) Signal” value turned out to be 209.87 and the “Sample B (Probe) Signal” value was 2,464.29.

Turning to LFKLKQND, the “Sample A (Bkgd) Signal” value is 366.58 and the “Sample B (Probe) Signal” value is reported as 1,857.96. On the same counts, the results for VLLHYGLY are 347.96 and 1,796.19.

With PWKLKQDP, the “Sample A (Bkgd) Signal” value is recorded as 197.52 and the “Sample B (Probe) Signal” value was 1,339.15.

Turning to RRSYPRGR, the “Sample A (Bkgd) Signal” value is 445.58 and the “Sample B (Probe) Signal” value was 1,661.87.

In the case of Ac-LYLLKHHP-NH2 (C-terminus assumed), the “Sample A (Bkgd) Signal” value was determined as 304.92 and the “Sample B (Probe) Signal” value is 2,527.00. For HNSYPRNE, the “Sample A (Bkgd) Signal” value worked out at 143.58.
